According to the RNAGym collection of RNA variant scans (doi:10.1073/pnas.2313332121):

B1: TPR t1 (parent)
chain: GACCAAUCUGCCCUCAGAGCUCGAGAACAUCUUCGGAUGCAGAGGAGGCAGGCUUCGGUGGCGCGAUAGCGCCAACGUCCUCAACCUCCAAUGCAUCCCACCACAUGAUGAUGCCUGAAGAGCCUUGGUUUUUUG

Variants of: B1
Assay: polymerase ribozyme fitness, log enrichment relative to wild type (log ratio); higher = more active; in vitro selection for triplet polymerase activity
Method in brief: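 Mutant libraries were PCR-built and transcribed for each subunit of a heterodimeric triplet polymerase ribozyme and selected for one round in triplicate at −7 °C, frozen, before gel excision of extended constructs and streptavidin-bead capture. Input and output libraries were Illumina-sequenced, keeping genotypes with ≥10 input reads and ≥1 read per output. Fitness is a logarithmic ratio of genotype to wild-type enrichment, in base 2, using inverse-variance-weighted replicate averages.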

| Variant | polymerase ribozyme fitness (log ratio) |
| --- | --- |
| GACCAAUCUGCCCUCAGAGCUCGAGAACAUCUUCGGAUGCAGAGGAGGCAGACUUCGGUGGCGCGAUAGCGCUAACGUCCUCAACCUCCAAUGCAUCCCACCACAUGAUGAUGCCUGAAGAGCCUUGGUUUUUUG [G52A C73U] | -0.414 |
| GACCAAUCUGCCCUCAGAGCUCGAGAACAUCUUCGGAUGCAGAGGAGGCAGACUUCGGUGGUGCGAUAGCGCCAACGUCCUCAACCUCCAAUGCAUCCCACCACAUGAUGAUGCCUUAAGAGCCUUGGUUUUUUG [G52A C62U G117U] | -2.86 |
| GACCAAUCUGCCCUCAGAGCUCGAGAACAUCUUCGGAUGCAGAGGAGGCAUGCUACGGUGGCGCGAUAGCGACAACGUCCUCAACCUCCAAUGCAUCCCACCACAUGAUGAUGCCUGAAGAGCCUUGGAUUUAUG [G51U U55A C72A U129A U133A] | -4.5 |
| GACCAAUCUGCCCUCAGAGCUCGAGAACAUCUUCGGAUGCAGAGGAGGCAGACUUCUGUGGCGCGAUAGCGUCAACGUCCUCAACCUCCAAUGCAUCCCACCACAUGAUGAUGCCUGAAGAGCCUUGGUUUUUUG [G52A G57U C72U] | -0.842 |
| GACCAAUCUGCCCUCAGAGCUCGAGAACAUCUUCGGAUGCAGAGGAGGCAGACUUCGGUGGAGCGAUAGCGCCAACGUCCUCAACCUCCAAUGCAUCCCACCACAUGAUGAUGCCUGAAGAGACUUGGUUUUUUG [G52A C62A C123A] | -1.42 |
| GACCAAUCUGCCCUCAGAGCUCGAGAACAUCUUCGGAUGCAGAGGAGGCAGACUUCGGUGGCGCGAUAGCGUCAACGUCCUCAACCUCCAAUGCAUCCCACCACAUGAUGAUGCCUGAAGAGCCAUGCUUUUUUG [G52A C72U U125A G128C] | -3.74 |
| GACCAAUCUGCCCUCAGAGCUCGAGAACAUCUUCGGAUGCAGAGGAGGCAUGCUUCGGUGGCGCGAUAGCGCCAACGCCCUCAACCUCCAAUGCAUCCCACCACAUGAUGCUGCCUGAAGAGUCUUGGUUUUUUG [G51U U78C A111C C123U] | -6.69 |
| GACCAAUCUGCCCUCAGAGCUCGAGAACAUCUUCGGAUGCAGAGGAGGCAGACUUCGGUGGCUCGAUAGCGCCAACGUCCUCAACCUCCAAUGCAUCCCACCACAUGAUGAUGCCUGAAGAGCCUUGGUUUUUUG [G52A G63U] | -2.08 |
| GACCAAUCUGCCCUCAGAGCUCGAGAACAUCUUCGGAUGCAGAGGAGGCAGACUUCGGUGGCGCGAUAGCGCCAACGUCCUCAACCUCCAAUGCAUCCCACCACAUGAUGAUGCCCGAAGAGCCUUGGUUUUUUG [G52A U116C] | -0.22 |
| GACCAAUCUGCCCUCAGAGCUCGAGAACAUCUUCGGAUGCAGAGGAGGCAGACUUCGGUGGCGCGAUAGCGCCAACGUCCUCAACCUCCAAUACAUCCCACCACAUGAUGAUGCCUGAAGAGCCUUGGUGUUUUG [G52A G93A U130G] | -1.22 |
| GACCAAUCUGCCCUCAGAGCUCGAGAACAUCUUCGGAUGCAGAGGAGGCAGAUUUCGGUGGCGCGAUAGCGCCAACGUCCUCAACCUCCAAUGCAUCCCACCACAUGAUGAUGUCUGAAGAGCCUUGGUUUUUUG [G52A C53U C114U] | -2.38 |
| GACCAAUCUGCCCUCAGAGCUCGAGAACAUCUUCGGAUGCAGAGGAGGCAGACUUCGGUGGCGCGAUAGCGCCAACGUCCUCAACCUCCAAUGCAUCCCACCACAUGAUGAUGCCUCAAGAGCCUUGGUUUUUUG [G52A G117C] | -2.77 |
| GACCAAUCUGCCCUCAGAGCUCGAGAACAUCUUCGGAUGCAGAGGAGGCAGACUUCGGUGGCGCGAUAGCGCCAACGUCCUCAACCUCCAAUGCAUCCCACCACAUGAUGAUGCCUUAAGAGCCUUGGUUUUUUG [G52A G117U] | -0.533 |
| GACCAAUCUGCCCUCAGAGCUCGAGAACAUCUUCGGAUGCAGAGGAGGCAGACUUCAGUGGCGCGAUAGCGCCAACGUCCUUAAACUCCAAUGCAUCCCACCACAUGAUGAUGCCUGAAGUGCCUUGGUUUUUUG [G52A G57A C82U C85A A121U] | -1.13 |
| GACCAAUCUGCCCUCAGAGCUCGAGAACAUCUUCGGAUGCAGAGGAGGCAGACUUCGGUGGCGCGAUAGCGCCUACGUCCUCAACCUCCAAUGCAUCCCACCACAUGAUGAUGCCUGAAGAGCCUUGGUUUUUUG [G52A A74U] | -0.719 |
| GACCAAUCUGCCCUCAGAGCUCGAGAACAUCUUCGGAUGCAGAGGAGGCAGACUUAGGUGGCGCGAUAGCGCCAACGUCCUCAACCUCCAAUGCAUCCCACCACAAGAUGAUGCCUGAAGAGCCUUGGUUUUUUG [G52A C56A U106A] | -1.08 |
| GACCAAUCUGCCCUCAGAGCUCGAGAACAUCUUCGGAUGCAGAGGAGGCAGACUUCGGUGGCGCGAUAGCGCCAACGUCCUCAACCUCCAAUGCAUCCCACCACAUGAUGAUGCCUGGAGAGCCUUGGUUUUUUG [G52A A118G] | -0.546 |
| GACCAAUCUGCCCUCAGAGCUCGAGAACAUCUUCGGAUGCAGAGGAGGCAUGCCUCGGGGGCGCGAUAGCGCCAACGUCCUCAACCUCCAAUGCAUCCCACCACAUGAUGAUGCCUGAAGAGCCUUGGUUUUUUG [G51U U54C U59G] | -3.68 |
| GACCAAUCUGCCCUCAGAGCUCGAGAACAUCUUCGGAUGCAGAGGAGGCAGACUUCGGUGGCGCGAUGGCGCCAACGUCCUCAACCUCCAAUGCAUCCCACCACAUGAUGAUGCCUGAAGAGCCUUGGUUUUUUG [G52A A68G] | -3.34 |
| GACCAAUCUGCCCUCAGAGCUCGAGAACAUCUUCGGAUGCAGAGGAGGCAGACUUCGGUGGCGCGAUAGCGUCAACGUCCUCAAGCUCCAAUGCAUCCCACCACAUGAUGAUGCCUGAAGAGCCUUGGUUUUUUG [G52A C72U C85G] | -2.39 |
| GACCAAUCUGCCCUCAGAGCUCGAGAACAUCUUCGGAUGCAGAGGAGGCAGACUUCGGUGGCGCGAUAGCGCCAACGUCCUCAACCCCCAAUGCAUCCCACCACAUGAUGAUGCCUCAAGAGCCUUGGUUUUUUG [G52A U87C G117C] | -3.1 |

| Variant | polymerase ribozyme fitness (log ratio) |
| --- | --- |
| GACCAAUCUGCCCUCAGAGCUCGAGAACAUCUUCGGAUGCAGAGGAGGCAGACUUCGGUGGCGCGAUAGCUCCAACGUCCUCAACCACCAAUGCAUCCCACCACAUGAUGAUGCCUGAAGAGCCUUGGUUGUUUG [G52A G71U U87A U131G] | -2.35 |
| GACCAAUCUGCCCUCAGAGCUCGAGAACAUCUUCGGAUGCAGAGGAGGCAGACUUCGGUGGCGCGAUAGCGCCAACGUCCUCAUCCUCCAAUGCAUCCCAUCACAGGAUGAUGCCUGAAGAGCCUUGGUUUAUUG [G52A A84U C101U U106G U132A] | -1.69 |
| GACCAAUCUGCCCUCAGAGCUCGAGAACAUCUUCGGAUGCAGAGGAGGCAGACUUCGGUGGCGCGAUAUCGCCAACGUGCUCAACCACCUAUGCAUCCCACCACAUGAUGAUGCCAGAAGAGCCUUGGUUUUUUG [G52A G69U C79G U87A A90U U116A] | -3.3 |
| GACCAAUCUGCCCUCAGAGCUCGAGAACAUCUUCGGAUGCAGAGGAGGCAGACUUCGGUGGCGCGAUAGCGUCAACGUCCUCAACCUCCAAUGCAUCCCACCACAUGAUGAUGCCUGAAGAGCCUUGGUUUUUUG [G52A C72U] | -0.913 |
| GACCAAUCUGCCCUCAGAGCUCGAGAACAUCUUCGGAUGCAGAGGAGGCAGACUUCGGUGGCGCGAUAGCGCCAACGUCCUCAACCCCCAAUGCAUCCCACCACAUGAUGAUGCCUGAAGAGCCUUGGUUUUUUG [G52A U87C] | 0.43 |
| GACCAAUCUGCCCUCAGAGCUCGAGAACAUCUUCGGAUGCAGAGGAGGCAGACUUCGGUGGCGCGAUAGCGCCAACGUCCUCAACGUCCAAUGCAUCCCACCACAUGAUGAUGCCUGAAGAGCCUUGGUUUUUUG [G52A C86G] | -0.287 |
| GACCAAUCUGCCCUCAGAGCUCGAGAACAUCUUCGGAUGCAGAGGAGGCAGACUUCGGUGGCGCGAUAGCGCCAACGUCCUCAACCCCCAAUGCAUCCUACCACAUGAUGAUGCCUGAAGAGCCUUGGUUUUUUG [G52A U87C C99U] | -3.97 |
| GACCAAUCUGCCCUCAGAGCUCGAGAACAUCUUCGGAUGCAGAGGAGGCAGACUUCGGUCACGCGAUAGCGCCAACGUCCUCAACCUCCAAUGCAUCCCACCACAUGAUGAUGCCUGAAGAGCCUUGGUUUUUUG [G52A G60C G61A] | -4.56 |
| GACCAAUCUGCCCUCAGAGCUCGAGAACAUCUUCGGAUGCAGAGGAGGCAUGCUUCGGUGGCGCGAUAGCGCCAACGUCCUCAACCUCCAAUGCAUCCCACCACAGGAUUAUGCCUGAAGAGCAUUGGUUUUUUG [G51U U106G G110U C124A] | -6.4 |
| GACCAAUCUGCCCUCAGAGCUCGAGAACAUCUUCGGAUGCAGAGGAGGCAGACUUCGGUGGCGCGAUAGCGCCAACGUCCUCAACAUCCAAUGCAUCCCACCACAUGAUGCUGCCUGAAGAGCCUUGGUUUUUUG [G52A C86A A111C] | -3.28 |
| GACCAAUCUGCCCUCAGAGCUCGAGAACAUCUUCGGAUGCAGAGGAGGCAGACUUCGGUCGCGCGAUAGUGCCAACGUCCUCAACCUCCAAUGCAUCCCACCACAUGAAGAUGCCUGAAGAGCCUUGGUUUUUUG [G52A G60C C70U U109A] | -5.53 |
| GACCAAUCUGCCCUCAGAGCUCGAGAACAUCUUCGGAUGCAGAGGAGGCAGACUUCGGUGGCGCGAUAGCGCCAACGUCCUCAACCUCCAAUGCAUCCCACCACAUGAUGAUGCCUGAAGAACUUUGGUUUUUUG [G52A G122A C124U] | 0.227 |
| GACCAAUCUGCCCUCAGAGCUCGAGAACAUCUUCGGAUGCAGAGGAGGCAUGCUUCGGUGGCGCGAUAGCGCCAACGCCCUCAACCUCCAAUGCAUCCCACCACAUGAUGAUGCCUGAAGAGCCUUGGUUUUUUG [G51U U78C] | -4.43 |
| GACCAAUCUGCCCUCAGAGCUCGAGAACAUCUUCGGAUGCAGAGGAGGCAGACUUCGGUGGCGCGAUAGCGCCAACGCCCUCAACCUCCAAUGCAUCCCACCACAUGAUGAUGCCUGAAGAGCCUUGGUUUUUUG [G52A U78C] | -0.748 |
| GACCAAUCUGCCCUCAGAGCUCGAGAACAUCUUCGGAUGCAGAGGAGGCAGACUUCGGUGGCGCGAUAGCGCCAACGGCCUCAACCUCCAAUGCAUCCCACCACAUGAUGAUGCCUGAAGAGCCUUGGUUUUUUG [G52A U78G] | -0.374 |
| GACCAAUCUGCCCUCAGAGCUCGAGAACAUCUUCGGAUGCAGAGGAGGCAGACUUCGGUGGCGCGAUAGCGCCAACGACCUCAACCUCCAAUGCAUCCCACCACAUGAUGAUGCCUGAAGAGCCUUGGUUUUUUG [G52A U78A] | -0.123 |
| GACCAAUCUGCCCUCAGAGCUCGAGAACAUCUUCGGAUGCAGAGGAGGCAGACUUCGGUGGCGCGAUAGUGCCAACGUCCUCAACCUCCAAUGCAUCCCACCACAUGAUGAUGCCUGAAAAGCCUUGGUUUAUUG [G52A C70U G120A U132A] | 0.354 |
| GACCAAUCUGCCCUCAGAGCUCGAGAACAUCUUCGGAUGCAGAGGAGGCAGACUUUGGUGGCGCGAUAGCGCCAACGUCCUCAACCUCCAAUGCAUCCCACCACAUGAUGAUGCCUGAAGAGCCUUGGUUUUUUG [G52A C56U] | -0.699 |
| GACCAAUCUGCCCUCAGAGCUCGAGAACAUCUUCGGAUGCAGAGGAGGCAGACUUCGGUGGCGCGAUAGCGCCAACGUCCUCAACCUCCAAUGCAUCCCACCACAUGAUGAUGCCUGAAAAGCCUUGGUUUUUUG [G52A G120A] | 0.47 |
| GACCAAUCUGCCCUCAGAGCUCGAGAACAUCUUCGGAUGCAGAGGAGGCAUGCUUCGGUGGCGCGAUAGCGCCAACGUCCUCAACCUCCAAUGCAUCCCACCACAUGAUGAUGCCUGAAGAGCCUUGGCUUUUUG [G51U U129C] | -4.13 |
| GACCAAUCUGCCCUCAGAGCUCGAGAACAUCUUCGGAUGCAGAGGAGGCAGACUUCGGUAGCGCGAUAGCGCCAACGUCCUCAACCUCCAAUGCAUCCCACCACAUGAUGAUGCCUGAAGAGCCUUGGUUUUUUG [G52A G60A] | -0.303 |
